Laboratory results taken from the nanobody polyreactivity screen of Harvey et al. (2022).

Experiment: yeast display, Sf9 membrane polyspecificity reagent, FACS + sequencing; frameworks hold sequencing errors
Outline: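 After 36–48 hours of galactose induction, yeast (Saccharomyces cerevisiae BJ5465) displaying a synthetic nanobody library were stained at 4 °C for 1 hour with 10% biotinylated, detergent-solubilized Sf9 membrane reagent. Streptavidin microbeads enriched the stained cells before FACS sorting into low and high (top ~1%) gates on anti-HA and streptavidin fluorescence. Each clone's polyreactivity label reflects its gate of origin.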

| Sequence | polyreactivity (PSR sort gate) |
| --- | --- |
| QVQLVESGGGLVQAGGSLRISCAASGFIFTGTALGWYRQAPGKERELVAAITWSGGRTYYADSVKGRFTISRDNAKNTVYLQMNSLKPEDTAVYYCNVYFSIAQRYVGGLIAHDNYWGQGTQVTVSS | high polyreactivity |
| QVQLVESGGGLVQAGGSLRLSCAASGFTFGGYAMGWYRQAPGKERELVAAITRSGGRTYYADSVKGRFTISRDNAKNTVYLQMNSLKPEDTAVYYCNAYVIRALGYGGYDYWGQGTQVTVSS | high polyreactivity |
| QVQHVESRGGLVQAGGSLRLSCAASGIIFSRNAMGWSRKAPGKERELLSGITSSGGTTYYADSVKGRFTISRDNAKNTVYLQMNSLKAEDTAVYYCAAYSTQNYSYRRYYYWGQGTQVTVSS | high polyreactivity |
| QVQLVESGVGLVQAGGSLRLSCAASGITFRSYAMGWYRQAPGKERELVAAIRSGGSTSYADSVKGRFTISRDNAKNTVYLQMNSLKPEDTAVYYCAAGGYVPLPDITFWKFGYWGQGTQVTVSS | low polyreactivity |
| QVQLVESGGGLVQAGGSLRLSCAASGSIFVVYAMGWYRQAPGKEREMVAVISNGGTTNYADSVKGRFTISRDNAKNTVYLQMNSLKPEDTAVYYCAKASSRRYWTIRDGDYWGQGTQVTVSS | low polyreactivity |
| QVQLVESGGGLVQAGGSLRLSCAASGSIFWGNAMGWYRQAPGKERELVAAIDWSGGSTYYADSVKGRFTISRDNAKNTVYLQMNSLKPEDTAVYYCAADYLGGGDVGFDYWGQGTQVTVSS | low polyreactivity |
| QVQLVESGAGLVQAGGSLRLSCAASGRTFSAYAMGWYRQAPGKERELVAAITLSVGSTYYADSVKGRFTISRDNAKTTVYLQMNSLKPEDTAVYYCNKYKKGEGGITIVRFDYWGQGTQVTVSS | low polyreactivity |
| QVQLVESGGGLVHAGGSLRLSCAASGTTLAIYAMGWYRQAPGKERELVASISRVGSTNYADSVKGRFTISRDNAKNTVYLQRNSLKPEDTAVYYCAARRSSYVILRAYYYWGQGTQVTVSS | high polyreactivity |
| QDQLVESGGGLVQAGGSLRLSCAASGRIFVYNDMGWYIQAPGKERELVAAISSVGTTYYADSVKGRFTISRDNAKNTVYLQMNSLIPEDTAVYYCAVTRYQSPPRYYYWGQGTQVTVSS | low polyreactivity |
| QVQLVESGGGLVQAGGSLRLSCAASGSTFDDYVMGWYRQAPGKERELVAGINSRGTSTDYADSVKGRFTISRDNAKNTVYLQMNSLIPEDTAVYYCAADDSHGYDYWGQGTQVTVSS | low polyreactivity |
| QVQLVESGGGLVQPGGSLRLSCAASGSTFSWNAMGWYRQAPGKERELVASITWGGGSTYYADSVKGRFTISRDTAKNTVYLQMNSLKPEDTAVYYSAAKYGTSKYSRYYYWGQGTQVTVSS | high polyreactivity |
| QVQLVESGGGLVQAGGSLRLSCAASGSIFHGYAMGWYRQAPGKERELVAAITYSGGRTYYADSVKGRFTISRDNAKNTVYLQMNSLKPEDTAVYYCAALTRRVKKYDYWGQGTQVTVSS | high polyreactivity |
| QVQLVESGGGLVQAGGSLRLSCAASGSTFYWYTMGWYRQAPGKERELVATITSVGRTNYADSVKGRFTISRDNAKNTVYLQMNSLKPEDTAVYYCAADSYSYRYYYWGQGTQVTVSS | high polyreactivity |
| QVQLVESGGGLVQAGGSLRLSCAASGRTFRYNVMGWYRQAPGKERELVAAITYSGGRTYYADSVKGRFTISRDNVKNTVYLQMNSLKPEDTAVYYCAALSAPGYGRYNYWGQGTQVTVSS | high polyreactivity |
| QVQLVESGGGLVQAGGSLRLSCAASGSTFRYYAMGWYRQAPGEEREFVASISSTGTSRYYADSVKGRFTISRDNAKNTVYLQMNSLKPEDTAVYYCAARYISYYGYNHWGQGTQVTVSS | high polyreactivity |
| QVQLVESGGGLVQAGGSLRLSCAASGSTFGSYAMGWYRQAPGKERELVAAITGSGGRTYYADSVKGRFTISRDNAKNRVYLQLNSLKPEDTAVYYCAKVPDYRFEYWGQGTQVTVSS | high polyreactivity |
| QVQLVESGGGLVQAGGSLRLICAASGIIFLYYAMGWYRQAPGKEWELVAAISSGVSTYYADSVKGRFTISRDNAKNTVYLQLNSLKPEDTAVYYCNADYYQLNSGMYYWGQGTQVTVSS | low polyreactivity |
| QVQLVESVGGLVQAGGILRLSCAPSGSTSYGNAMGWYRQAPAKVRELVAAISSSGSSTYYADSVKGRFTISRDNAKNTVYLQMNSLKPEDTAVYYCNKRRSHSYYSRRFDYWGQGTQVTVSS | high polyreactivity |
| QVQLVESGGGLVQAGGSLRLSCAASGRIFNQYGMGWYRQAPGKERELVAAIRSGDSTNYADSVKGRFTISRDNAKNTVYLQMNSLKPVDTAVYYFNAYLSPKQPLSPPDPTFEGGYWGQGTQVTVSS | low polyreactivity |
| QVQLVESGGGLVQAGGSLRLSCAASGSIFSFYAMGWYRQAPGKERELVADISLTTDSTYADSVKGRFTISRDNAKNTVYLQMNSLKPEDTAVYYCAADGSNWEYDYWGQGTQVTVSS | low polyreactivity |
| QVQLVESGGGLVQAGGSLRLSCAASGRIFGPYAMGWYRQAPGKERELVAAISWSGGSTYYADSVKGRFTISRDNAKNTVFLQMNSLKPEDTAVYYCAARERRVYGDRFYKLDYWGQGTQVTVSS | high polyreactivity |
| QVQLVESGGGLVQAGGSLRLSCAASGIILYYNAMGWYRQAPGKERALVAAITTSGVSTYYADSVKGRFTISRDNAKNTVYLQMNSLKPEDTAVYYCNADYLYGRYTYDYWGQGTQVTVSS | low polyreactivity |

| Sequence | polyreactivity (PSR sort gate) |
| --- | --- |
| QVQLVESGGGLVQAGGSLRLSCAASGSTFYPYAMGWYRQAPGKERELVADITNSGSTYYADSVKGRFTISRDNAKNTVYLQMNCLKPEDTAVYYCSASVYSVADYYYWGQGTQVTVSS | low polyreactivity |
| QVQLVESGGGLVQAGGSLRLSCAASGRILVLNAMGWYIQAPGKERELVADITSGGSTYYADSVKGRFTISRDNEKNTVYLQMISLKPEHTAVYYCAADWNTYPDYLQSYFVSYEYNYWGQGTLVTVSS | low polyreactivity |
| QFQLVESGGGLVQAGGSLRLSCAASGSTFDPNAMGGYRQAPGKERELVASITSRGGSTYYADSVKGRFTISRDNAKNTVYLQMNSLKPEDTAVYYCAAVGGATYSWNGYSWYPWHNYWGQGTQVTVSS | low polyreactivity |
| QVQLVESGGGLVQAGGSLRLSCAASGTIFGYYAMGWDREAPGKERELVAAITVSGSRTYYADSVKGRFTISRDKAKNTVYLQMNCLKPEATAVYYCAARYVSRYWAGRYPTRQRDSWGQGTQVTVSS | high polyreactivity |
| QDPHVESGGGIVQAGGSISLRCSASGSTYAKKAMVRYRKAPGKEKELFADISASGGSTYYADSVKGRFTISRDIAKNSVYLQMYSLKPEETSVYYWAKSSYLTRGSRYDYWGQGTQVTLSS | low polyreactivity |
| QVQLGESGGGLVQAGGSLRLSCAASGSTFYYYAMGWYRQAPGKERELVASINYSAGRTYYADSVKGRFTISRDNAKNTVYLQMNSLKPEDTAVYYCAAETPSGYYPQQYDYYWGQGTQVTVSS | high polyreactivity |
| QVQLVESGGGLVQAGGSLRLSCAAYGRIFYRNAMGWYRQAPGKERELVAAISRSGGSTYYADSVKGRFTISRDNAKNTVYLQMNSLNPEDTAVYYCNAYRYLQSGPPRYREHGSWGQGTQVTVSS | low polyreactivity |
| QVQLVESGGGLVQAGGSLRLSCAASGSTFSGNAMGWYRQAPGKERELVAAISQSGGSTYYADSVKGRFTISRDNAKNTVYLQMNSLKPEDTAVYYCNRLYYFLARRMDSWGQGTQVTVSS | high polyreactivity |
| QVQLVESGGGLVQAGGSLRLSCAASGSTFFTYTMGWYRQAPGKERELVAAISSGGSTYYADSVKGRFTISRDNAKNTVYLQMNSLKPEDTAVYYLLRGQGTQVTVSS | low polyreactivity |
| QVQLVESGGGLVQAGGSLRLSCPASGLIFNSYAMGWYRQARGTERELVAAISRHGGITYYADSVKGRFTISRDHAKNTVYLQMNSLKPEDTAVYYCNADSSRRRYSSDYWGQGTQVTVSS | high polyreactivity |
| QVQLVESGGGLVQAGGSLRLSCAASGSMFTNYAMGWYRQAPGQERELVAAISVGGGRTYYADSVKGRFTISRDNAQNTVYVQLNSLKPEDTAVYYCAARYPFGSLGRYGYWGQGTQVTVSS | high polyreactivity |
| QVQLVESGGGLVQAGGSLRLSCAASGRIFAHNAMGWYRQAPGKERELVAAISSSDGSTYYADSVKGRFTISRDNAKNTVYLQMNSLKPEDTAVYYCAARGSPSKHHWYDYWGQGTQVTVSS | low polyreactivity |
| QVQHVESAGGLVQAGGILRLSCHASGFTIHAYVLGWYRQAPGKERELVAAISSGGSTYYADSVKGRFTISRDNAKNTGYLQMNSLKPEATSVYYCAAAYPYYWHLDFWGQGSQVTVSS | low polyreactivity |
| QVQLVESGGGLVQAGGSLRLSCAASGSIFHGNAMGWYRQAPGKERELVAAITARGGRTYYADSVKGRFTISRDNAKNTVYLQMNSLKPEDTAVYYCNAVHRYERDYWGQGTQVTVSS | high polyreactivity |
| QVQLVESGGGLVQAGGSLRLSCAASGFIFDVYAMGWYRQAPGKERELVAAISVSSTNYADSVKGRFTISRDNAKNTVYLQMNSLKPEDTAVYYCAADTYTYFLASYLYGQYDYWGQGTQVTVSS | low polyreactivity |
| QVQLVESGGGLVQAGGSLRLSCAASGFIFWGNAMGWYRQAPGKERELLAAINYSGGRTYYADSVKGRFTISRDNAKNTVYLQMNSLKPEDSAAYYCAAKYRYHVSGYDYWGQATQVTVSS | high polyreactivity |
| QVQLVESGGGLVQAGGSLRLSCAASGRISYYAMGWYRQAPGKERELVAVISSRGGSTYYADSVKGRFTISRDNAKNTVYLQMNSLKPEDTAVYYCAADLYYDAWRLYVLGYATMDYWGQGTQVTVSS | high polyreactivity |
| QVQLLETGRGLVQAGGSLRISCAASGYTFGVYVMGWYRQAPGQERELVAAISGSTYYADSVNGRFKISRDNAKNTVYLQMNSLKPEDTAVYYCAAESFFFSPRTREIFDYWGQGTQVTVSS | low polyreactivity |
| QVQLVESGGGLVQAGGSLRLSCAASGFTLIDYAMGWYRQAPGKERELVAAISGSGGRTYYADSVKGRFTISRDNAKNTVYLQMNSLKPEDTAVYYCAAGRRHVYKRRRYDYWGQGTQVTVSS | high polyreactivity |
| QVQLVESGGGLLQAGGSLRLSCAASGLIFRSYAMGWYRQAPGKERDLVAAITDLFWSTYYADSVKGRFTISRDNAKNTVYLQMNSLKPEDTAVYYCARDDWVYTNVEMDYWGQGTQVTVSS | high polyreactivity |
| QVQLVESGGGLVQAGGRLRLSCAPSGIIFQQYAMGWYRQAPGKERELVAAISRGGTRTYYADSVKGRFTISRDNAKNTVYLLMNSLKPEDTAVDYCAADRGYFSYDYWGQGTQVTVSS | high polyreactivity |
